One experiment has as its target MEDI-579 Fab (human). Kind of experiment: SPR; BIAcore T100; antibody (MEDI-579 Fab) amine-coupled to a CM3 sensorchip at about 500 RU; serial dilution of PAI-1 between 6.25 nM and 25 pM in HBS-EP+ passed over the surface. A general note: In SPR one partner is held on a chip, and binding of the other changes the refractive index at the surface.
The target of experiment [1] is human plasminogen activator inhibitor-1 (PAI-1), active (native) form (Homo sapiens, UniProt P05121, glycosylated (SPR preparation)).
human plasminogen activator inhibitor-1 (PAI-1), active (native) form (Homo sapiens, UniProt P05121, glycosylated (SPR preparation)), sequence (P05121 24-402): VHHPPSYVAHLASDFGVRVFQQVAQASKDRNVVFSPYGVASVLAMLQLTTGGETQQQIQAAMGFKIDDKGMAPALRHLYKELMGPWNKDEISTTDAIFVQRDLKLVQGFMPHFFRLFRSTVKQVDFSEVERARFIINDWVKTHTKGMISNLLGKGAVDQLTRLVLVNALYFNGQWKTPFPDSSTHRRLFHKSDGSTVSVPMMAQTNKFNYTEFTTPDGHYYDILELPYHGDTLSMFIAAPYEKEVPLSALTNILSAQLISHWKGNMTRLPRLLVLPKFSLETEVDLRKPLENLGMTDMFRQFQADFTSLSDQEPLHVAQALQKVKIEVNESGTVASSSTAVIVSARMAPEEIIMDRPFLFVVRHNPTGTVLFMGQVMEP
For the next experiment, the target named is T1, rat PAI-1 (Rattus norvegicus, UniProt P20961).
T1 construct: source: bought: Molecular Innovations (SPR)
T1 sequence (P20961 24-402): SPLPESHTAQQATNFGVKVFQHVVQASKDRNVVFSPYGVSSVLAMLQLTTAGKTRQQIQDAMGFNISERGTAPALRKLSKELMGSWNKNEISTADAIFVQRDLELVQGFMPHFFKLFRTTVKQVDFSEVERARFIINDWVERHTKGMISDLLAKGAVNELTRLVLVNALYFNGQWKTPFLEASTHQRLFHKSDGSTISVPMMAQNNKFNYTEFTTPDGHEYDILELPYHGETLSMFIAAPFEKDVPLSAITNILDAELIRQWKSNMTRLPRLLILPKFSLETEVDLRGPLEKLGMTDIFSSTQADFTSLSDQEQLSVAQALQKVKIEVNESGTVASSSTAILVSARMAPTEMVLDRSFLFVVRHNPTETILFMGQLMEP
The experiment can be described thus: SPR; BIAcore T100; antibody (MEDI-579 Fab) amine-coupled to a CM3 sensorchip at about 500 RU; serial dilution of PAI-1 between 6.25 nM and 25 pM in HBS-EP+ passed over the surface. Particulars: both partners purified.

A word on the Kd: it is the constant that tells how readily two partners part at equilibrium. High values mean lower affinity, low ones higher affinity. The term koff denotes the first-order rate constant of dissociation. Read a high koff as a short-lived complex. As usually defined, the kon is the second-order rate constant of association. Read a low kon as slower complex formation. On to “human plasminogen activator inhibitor-1 (PAI-1), active (native) form (from UniProt P05121 24-402) (natural protein)”, for which, in the experiment with MEDI-579 Fab (human), the Kd is 0.006 nM, the koff came out at 4.18e-05 s⁻¹ and the on-rate constant (kon) turned out to be 7.02e+06 M⁻¹ s⁻¹.

B1: Parent (antibody, V domains shown)
VH: QVQLQQSGAEVKKPGSSVKVSCKASGGTFSSYAISWVRQAPGQGLEWMGGIIPIFDTANYAQKFQGRVTITADESTSTAYMELSSLRSEDTAVYYCAREKRQWLEGHFDYWGRGTLVTVSS
VL: DIQMTQSPSFLSASIGDRVTITCRASEGIYHWLAWYQQKPGKAPKLLIYKASSLASGAPSRFSGSGSGTDFTLTISSLQPDDFATYYCQQYSNYPLTFGGGTKLEIK
For the molecule B1, in experiment [1], the binding result was “binds”.

B2: MEDI-579 Fab (Fab, V domains shown)
VH: QVQLVQSGAEVKKPGSSVKVSCKASGGTFSSYAISWVRQAPGQGLEWMGGIIPTFGTANYAQKFQGRVTITADESTSTAYMELSSLRSEDTAVYYCARERRQWLEGHFDYWGRGTLVTVSS
VL: DIQMTQSPSTLSASVGDRVTITCRASEGIYHNLAWYQQKPGKAPKLLIYKASSLASGVPSRFSGSRSGTEFTLTISSLQPDDFATYYCQQYSNYPLTFGGGTKVEIK
notes: heavy chain of the Fab; closest germline IGHV1-69*12; light chain of the Fab; closest germline IGKV1-5*03; The Fab for crystallisation was made by papain digestion of the IgG1
Turning to B2, in the experiment with rat PAI-1, binding was put at a Kd of 0.105 nM, the koff turned out to be 0.000797 s⁻¹ and the kon was 7.64e+06 M⁻¹ s⁻¹.

(Values after article PMC6367345 (Scientific Reports, 2019).)
